Source: article PMC8796304 (ACS Central Science, 2021)
Ends that are not written are not given here.

T1: GPI-anchored myc peptide tag (Homo sapiens c-Myc epitope tag, UniProt P01106, also: GPI anchor)
T1 chain: EQKLISEEDL


Experiments:
[1] = target: Frizzled 1 extracellular domain (Homo sapiens (assumed), UniProt Q9UP38); experiment: ELISA
[2] = target: Frizzled 2 extracellular domain (Homo sapiens (assumed), UniProt Q14332); experiment: ELISA
[3] = target: T2, Frizzled-7/Fc chimera protein (Homo sapiens, UniProt O75084); experiment: BLI
[4] = target: T1, GPI-anchored myc peptide tag; experiment: flow cytometry on cells
[5] = target: human Frizzled-7 on Fzd7+myc+ CHO cells (Homo sapiens, UniProt O75084); experiment: flow cytometry on cells
[6] = target: T2, Frizzled-7/Fc chimera protein; experiment: ELISA

Chain of Frizzled 1 extracellular domain (Q9UP38 whole entry, looked up, the tested form may be a part): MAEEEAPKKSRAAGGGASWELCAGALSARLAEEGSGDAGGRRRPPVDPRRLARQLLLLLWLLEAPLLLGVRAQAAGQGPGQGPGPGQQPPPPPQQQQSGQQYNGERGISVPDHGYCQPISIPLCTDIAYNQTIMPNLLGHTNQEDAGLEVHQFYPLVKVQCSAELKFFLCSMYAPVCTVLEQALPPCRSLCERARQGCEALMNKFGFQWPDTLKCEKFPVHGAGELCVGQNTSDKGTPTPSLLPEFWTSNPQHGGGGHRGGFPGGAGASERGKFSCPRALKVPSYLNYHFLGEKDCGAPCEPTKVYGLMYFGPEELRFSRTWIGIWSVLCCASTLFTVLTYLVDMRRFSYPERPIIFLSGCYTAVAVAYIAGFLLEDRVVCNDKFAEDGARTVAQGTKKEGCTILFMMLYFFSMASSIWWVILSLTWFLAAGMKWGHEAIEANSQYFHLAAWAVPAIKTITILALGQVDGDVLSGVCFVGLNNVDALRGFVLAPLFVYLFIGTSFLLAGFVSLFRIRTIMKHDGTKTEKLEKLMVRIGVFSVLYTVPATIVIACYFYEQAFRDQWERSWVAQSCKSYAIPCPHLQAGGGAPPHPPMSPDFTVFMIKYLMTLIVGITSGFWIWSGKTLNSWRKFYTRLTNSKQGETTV
Chain of Frizzled 2 extracellular domain (Q14332 whole entry, looked up, the tested form may be a part): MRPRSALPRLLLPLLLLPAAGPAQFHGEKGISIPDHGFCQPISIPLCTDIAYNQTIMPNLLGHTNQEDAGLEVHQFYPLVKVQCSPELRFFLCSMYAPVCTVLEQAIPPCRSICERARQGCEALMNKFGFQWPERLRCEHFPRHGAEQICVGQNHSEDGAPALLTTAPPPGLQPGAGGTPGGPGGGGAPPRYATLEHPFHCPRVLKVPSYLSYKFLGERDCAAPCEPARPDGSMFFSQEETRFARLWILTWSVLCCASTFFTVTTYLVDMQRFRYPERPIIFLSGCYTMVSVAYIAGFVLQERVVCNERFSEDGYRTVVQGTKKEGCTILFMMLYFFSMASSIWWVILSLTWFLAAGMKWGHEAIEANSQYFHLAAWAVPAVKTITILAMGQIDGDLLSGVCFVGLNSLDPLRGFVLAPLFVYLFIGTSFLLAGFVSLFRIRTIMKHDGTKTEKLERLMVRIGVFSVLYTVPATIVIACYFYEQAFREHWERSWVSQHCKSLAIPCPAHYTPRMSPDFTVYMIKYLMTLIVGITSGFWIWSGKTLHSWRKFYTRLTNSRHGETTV

Binder	binding result [1]	binding result [2]	Kd [3] [nM]	binding result [4]	EC50 [5] [nM]	EC50 [6] [nM]
ML7 (antibody, V domains shown) VH: EVQLVESGGGLVQPGGSLRLSCAASGFNIYYYSMHWVRQAPGKGLEWVASISSYYGYTYYADSVKGRFTISADTSKNTAYLQMNSLRAEDTAVYYCARSWGYGGSSSYALDYWGQGTLVTVSS VL: DIQMTQSPSSLSASVGDRVTITCRASQSVSSAVAWYQQKPGKAPKLLIYSASSLYSGVPSRFSGSRSGTDFTLTISSLQPEDFATYYCQQVGGGPITFGQGTKVEIK	binds	binds	0.448 ± 0.053	no binding (tested: 50 nM)	< 10	< 10
ML9 (antibody, V domains shown) VH: EVQLVESGGGLVQPGGSLRLSCAASGFNIYYYSMHWVRQAPGKGLEWVASISSYYGYTYYADSVKGRFTISADTSKNTAYLQMNSLRAEDTAVYYCARSWGYGGSSSYALDYWGQGTLVTVSS VL: DIQMTQSPSSLSASVGDRVTITCRASQSVSSAVAWYQQKPGKAPKLLIYSASSLYSGVPSRFSGSRSGTDFTLTISSLQPEDFATYYCQQGWWGYYSLITFGQGTKVEIK			0.292 ± 0.066	no binding (tested: 50 nM)		
ML8 (antibody, V domains shown) VH: EVQLVESGGGLVQPGGSLRLSCAASGFNIYYYSMHWVRQAPGKGLEWVASISSYYGYTYYADSVKGRFTISADTSKNTAYLQMNSLRAEDTAVYYCARSWGYGGSSSYALDYWGQGTLVTVSS VL: DIQMTQSPSSLSASVGDRVTITCRASQSVSSAVAWYQQKPGKAPKLLIYSASSLYSGVPSRFSGSRSGTDFTLTISSLQPEDFATYYCQQYAYPVYFLITFGQGTKVEIK			4.98 ± 0.28	no binding (tested: 50 nM)	< 10	< 10
